Earlier results in PMC10558290.
pKd: −log10 of the molar value. Like-named read-outs stand apart in the source and are kept apart here.

Legend:
[1] = target: G-actin (Saccharomyces cerevisiae) (UniProt P60010)
[2] = target: G-actin (Saccharomyces cerevisiae) (UniProt P60010); remark: listed apart in the source

Sequence of Srv2 (P17555 whole entry): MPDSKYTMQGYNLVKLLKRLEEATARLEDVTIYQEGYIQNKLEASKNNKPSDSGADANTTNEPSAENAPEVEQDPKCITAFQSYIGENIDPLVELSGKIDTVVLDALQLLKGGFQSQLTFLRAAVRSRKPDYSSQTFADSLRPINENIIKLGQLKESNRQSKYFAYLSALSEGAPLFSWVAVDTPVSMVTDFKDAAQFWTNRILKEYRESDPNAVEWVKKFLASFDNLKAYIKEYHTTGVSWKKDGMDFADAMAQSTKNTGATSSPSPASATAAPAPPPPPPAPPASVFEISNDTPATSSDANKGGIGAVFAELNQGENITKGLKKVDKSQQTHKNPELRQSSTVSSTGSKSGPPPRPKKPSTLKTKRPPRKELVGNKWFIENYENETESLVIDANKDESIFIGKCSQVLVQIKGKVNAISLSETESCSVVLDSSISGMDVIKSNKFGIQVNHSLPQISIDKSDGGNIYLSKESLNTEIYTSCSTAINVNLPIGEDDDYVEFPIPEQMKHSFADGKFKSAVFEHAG
Sequence of Profilin Pfy1 (P07274 whole entry): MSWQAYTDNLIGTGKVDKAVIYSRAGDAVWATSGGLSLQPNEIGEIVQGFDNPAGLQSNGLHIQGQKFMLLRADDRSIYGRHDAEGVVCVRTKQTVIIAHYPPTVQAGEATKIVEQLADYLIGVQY

Row | Substance | pKd [1] | pKd [2]
1 | Profilin Pfy1 (from UniProt P07274) | 7.00 | –
2 | Srv2 (from UniProt P17555) | – | 7.74
